Test results taken from PMC11302929.
Values joined by “and” are separate entries in the source; they are usually repeats but may differ in a detail not shown here. Equal values may be shown once.

Target: recombinant soluble NDV HN ectodomain with GCN4IL dimerization domain (HN-GCN4IL) (not stated | Newcastle disease virus)
Test: SEC; Superdex 200 Increase 10/300 GL column, freshly purified NDV HN proteins

recombinant soluble NDV HN ectodomain with GCN4IL dimerization domain (HN-GCN4IL)
stoichiometry N: 2 and 4
